Measured values published in the DeepSol protein solubility set.

Experiment: soluble on expression in E. coli; label from the status in PepcDB or PDB records

| Sequence | soluble on expression in E. coli |
| --- | --- |
| MIKNPILRGFNPDPSICRADTDYYIATSTFEWFPGVQIHHSKDLVNWHLVAHPLNRTSLLDMKGNPNSGGIWAPDLSYHDGKFWLIYTDVKVTDGMWKDCHNYLTTCESVDGVWSDPITLNGSGFDASLFHDNDGKKYLVNMYWDQRTYNHNFYGIVLQEYSDKEKKLIGKAKIIYKGTDIKYTEGPHIYHIGDYYYLFTAEGGTTYEHSETVARSKNIDGPYEIDPEYPLLTSWHDPRNSLQKCGHASLVHTHTDEWYLAHLVGRPLPVGNQPVLEQRGYCPLGRETSIQRIEWVDNWPRVVGGKQGSVNVEAPKIPEVKWEKTYDEKDNFDSDKLNINFQSLRIPLTENIASLKAKKGNLRLYGKESLTSTFTQAFIARRWQSFKFDASTSVSFSPDTFQQAAGLTCYYNTENWSTIQVTWNEDKGRVIDIVCCDNFHFDMPLKSNVIPIPKDVEYIHLKVEVRVETYQYSYSFDGINWSKVPAIFESRKLSDDYVQGGGFFTGAFVGINCIDITGNNKPADFDYFCYKEL | soluble |
| MIKRGFPAVLDENTEILILGSLPSDESIRKQQYYGNPGNDFWRLVGHAIGENLQDMAYEKKLKTLKHNRIGLWDVFKAGSREGSQDSKIGDEEINDFSGLKEMVPKLRLICFNGRKAGEYEPLLRGMGYETKVLPSSSGANRRFSKNRESEWEAVFRHLEHHHHHH | soluble |
| MIKTFKSKALAELYETGSSSKTDKKLFKRIIVRLDRLNVAEKPEEMNLPGFNFHALIGFHPIRYTVHINGPWCITFEFDSCNAYRVDLEQYH | not soluble |
| MIKVVVRKRPLSELEKKKKDSDIITVKNNCTLYIDEPRYKVDMTKYIERHEFIVDKVFDDTVDNFTVYENTIKPLIIDLYENGCVCSCFAYGQTGSGKTYTMLGSQPYGQSDTPGIFQYAAGDIFTFLNIYDKDNTKGIFISFYEIYCGKLYDLLQKRKMVAALENGKKEVVVKDLKILRVLTKEELILKMIDGVLLRKIGVNSQNDESSRSHAILNIDLKDINKNTSLGKIAFIDLAGSERGADTVSQNKQTQTDGANINRSLLALKECIRAMDSDKNHIPFRDSELTKVLRDIFVGKSKSIMIANISPTISCCEQTLNTLRYSSRVKNKGNSKLEGKPIPNPLLGLDSSRTGHHHHHH | soluble |
| MILIIYAHPYPHHSHANKRMLEQAGTLENVEIRSLYHLYPDFNIDVAAEQEALSRASLIVWQHPMQWYSVPPLLKLWMDKVLTHGWAYGHGGTALHGKHLLWAVTTGGGENHFAIGSHPGFDVLSQPLQATALYCGLKWLSPFAMHCTFICDDDTLQAQARQYKQRLLAWQEVNHG | not soluble |
| MILQRLFRFSSVIRSAVSVHLRRNIGVTAVAFNKELDPIQKLFVDKIREYKSKRQTSGGPVDASSEYQQELERELFKLKQMFGNADMNTFPTFKFEDPKFEVIEKPQALEHHHHHH | not soluble |
| MIMKKEKTYSRAPLPFVGQKRMFVSEFKKILKHFDDKTIFVDLFGGSGLLSHITKRERPDAVVIYNDHDNYRERLENIDRTNTLLRDLRKIVGIYPRHQKITGKMREAFLERIRLEETTGFVDYLTLSTSLLFSGKYAQNMEELEGLYFYNKIRQSDYRCDGYLDGLEVVCYDYKELADTYGVFPGVVFLVDPPYMGTDISTYKMDWKLADYLDVLLVLKGH | not soluble |
| MINLKGITKSFQNGAESIQILHGIDVTLNQGEFTSIMGPSGSGKSTLMNIIGCLDKPTTGTYELAGQNISNMSKTELAHVRNKEIGFVFQNFMLLPRLSALQNVELPLIYAGVDKKERRERSLAALTKVGLADRATHLPNELSGGQKQRVAVARAIVNNPKFILADEPTGALDTKTSTQIMDLFYELNKQGSTIIMITHDREIGEAAARQIVIRDGNIVQDWRG | not soluble |
| MINRRYELFKDVSDADWNDWRWQVRNRIETVEELKKYIPLTKEEEEGVAQCVKSLRMAITPYYLSLIDPNDPNDPVRKQAIPTALELNKAAADLEDPLHEDTDSPVPGLTHRYPDRVLLLITDMCSMYCRHCTRRRFAGQSDDSMPMERIDKAIDYIRNTPQVRDVLLSGGDALLVSDETLEYIIAKLREIPHVEIVRIGSRTPVVLPQRITPELVNMLKKYHPVWLNTHFNHPNEITEESTRACQLLADAGVPLGNQSVLLRGVNDCVHVMKELVNKLVKIRVRPYYIYQCDLSLGLEHFRTPVSKGIEIIEGLRGHTSGYCVPTFVVDAPGGGGKTPVMPNYVISQSHDKVILRNFEGVITTYSEPINYTPGCNCDVCTGKKKVHKVGVAGLLNGEGMALEPVGLERNKRHVQE | soluble |
| MIPFDYERATDVDSAVATVTGDPRASFLAGGTNLVDHMKLGVARPHLLVDVSRLPLGDVVELPDGGLRIGAAVRNSDLAAHDVVRARYPMLSRALLSGASGQLRNLATTAGNLLQRTRCVYFQDVTTPCNKREPGTGCSAIGGYVRYHAILGASEHCVAVHPSDMAVAMTALDGVVVVRGADGERRIPLSEFYRLPGDRPDRDTVLAHGDLVTAVELPPPPSGNRSAYRKVRDRASFAFAVVSVAAELTIGDTSITSARVALGGVAHRPWRATLAEEVLVGSPPTEATYTEAAAAELAAAQPLPGNEFKVALTRRVLASVLRSLAEEARR | soluble |
| MIPKKSSFIVTYAFRIKPTSPQDSGSNRMIIVITPTYKRITRLADITRLANTLSQVENLHWIVIEDGESTIPNVQNILERSELLYTYVAHRTASGYPARGWYQRDMALKLIRTNPSQILGEHEGEAVIYFADDDNSYDLRLFEDYIRNVKKLGLWAVGLAGGAAVEAPNVVNKKVTSFNFKWKSKRRFAVDMAGFAINLDYILNSSAVFGTECKRGDGAPETCLLEDLGFDLNDIEPFGYEKEASEIYSSLYSMVFYLQKNNEILVWHTKTSYSGMKVKEAEKFGYFVEP | not soluble |
| MIPLCREHNKTCRVKVNYHWRVYNEDINKNAVLELSCQCQVLDQLRKTFVELGSSTIHSAADFEFSCITKDGPVVLSSGYEIYNNIRPELSFYHSQLPQLFLHVRILDVSVIAKLDDLGRTVNECKATMKSDKAWRVMKDTEIAEGQLSLQELLDKQQLEIKSLQKDISEMKLENQCRKKEDKNSFKNKEVHEASCDKCQDLIIGHRFKCAICYNYDLCETCEAAGVHAQHALIRLVSENTLFPEHLIVKNPEEVKDQNGQVQAIASSRDRAIQVPLRRLGITPQAIATKNNVSRYLNAQSDRNIIEDPWYAQHMSSRKPQTYERMHPKLKDTTDGKKVQKVSFRDRFYKKAESSLDKHEKQLRFDLSASRQEFIREKEKFRVEKETLMKQKEQIEEMMKQETINFETNRAFFSDRFEPIFNKVKDGKKSEDDTTRKVEFEVETAESNYPGSIFSDEDSLSDLAEILKDIEEYECSSESSDDQEKDDFDVVEEEAKQS | not soluble |
| MIPTATYRLQFRNGMTFDRAAALVPYLKNLGISHLYASPIFTATKASTHGYDVTDANEIEPSIGGREGFERLVAELKAQGLGLIIDIVPNHMASSLENAWWRDVLEYGKESRYARHFDIDWSRRLTLPFLGDTFDAVLENGEIAIKPDPATGKPAFAYYDNYYPLAPATWQGREAEILALTDKAAIADLHERQPWKLMSWRDAARSLSYRRFFEVTGLVGMRVEDKTVFDDTHRLILELVRTGAVDGLRIDHIDGLADPKAYLARLRQEVGPACYITVEKILAKGEQLPDDWPVSGTTGYEFIASLAEVLVDDEQIDNLRQAYETVKGAPVDMRAELRAAKLLMVDRNFEGEFTRLLALALSIASELQIAQEESVVRQALRELLIAFPVYRTYGTAEGLPPTDICLLHRIVERVKTLETPPQPEALTFLSRLLTGDVPASSQEEATQFRVRFQQLTGPLMAKSVEDTLFFRQNMGLALNEVGAEPVTHHFSIERFHHEMKTRQARQPDALSGTSTHDTKRGEDARARLYTLTEAPEQWSECLARWRQMNQTHVKFLNDGTAPKSADTWMLYQALTGVWPPVLQPQDETGLNALKTRFEAFVEKALREAKLRTDWVDSNEAYETAMLDYARYLLAPDNQTFLQDFYRSLQPFIRAGLVNSLTQTVIKLTAPGVPDIYQGSEALNFSLVDPDNRREPDFATLAQQLDQLTPGVFSREESWLNGQVNQYVTAALLRLRQQNHELFRFGDYIPLRAVGQRADKVIAYARVNHDDALIVVAPRLVFAECDGLLSQSHSGFWSGTDIIIPGQLNQHRYRNVLTQERLMPGERLSLASHQGGVLVLMSD | not soluble |
| MIQHLSSDTVVIGGGVVGLTIALTVARRHRSVILLDPEEPGSGASYGNAGTIADYAVLPVGTPDVLRQLPSLMFDRNSPLAIRHMALPSLAPWLARFLRQSLPAPARRNAQAIAALLGSATRSWEDLAVEVEGTALLNRRGCLYAYETPQAARAAETDMTFRRTLGVTVELLSAAEFAAMEPSLPPMAGAAYFPKAIFLSDPGRMVALIAEAARKAGVQIVKARATGLERRVDGVIVSGRALQIHGRRAVIAAGAHSRALALCAGDRVPLDTERGYHVEWDMAQPPLTRPTCPTARGFYLCPMAGRLRVAGTVELGGLTARPSPHRIARLVAGARAIFPHLPEPTRSWMGFRPSMPDSLPVIGPSAAGPEILHAYGHGHIGLTLAPITARIVADLLDAKTPELDIAPYLPTRFLEHHHHHH | not soluble |
| MIQLGGYKPRLSLHNSLFRALVSKQGGILNDQLKQAEFIFHNVVTTGLEVQKDIYSGLIWLHSCQDEVDIGRINSLREEMKKAGFQESKEVVVSLLRAYAKEGGVEEVERTWLELLDLDCGIPSQAFVYKIEAYSKVGDFAKAMEIFREMEKHIGGATMSGYHKIIEVLCKVQQVELVETLMKEFEESGKKPLLPSFIEIAKMYFDLGLHEKLEMAFVQCLEKCQPSQPIYNIYLDSLTKIGNLEKAGDVFNEMKNNGTINVSARSCNSLLKGYLDCGKQVQAERIYDLMRMKKYEIEPPLMEKLDYILSLKKKEVKKRPFSMKLSKDQREVLVGLLLGGLQIESDKEKKSHMIKFEFRENSQAHLVLKQNIHDQFREWLHPLSNFQEDIIPFEFYSVPHSYFGFYAEHYWPKGQPEIPKLIHRWLSPHSLAYWYMYSGVKTSSGDIILRLKGSLEGVEKVVKALQAKSMECRVKKKGKVFWIGLQGTNSALFWKLIEPHVLENLKEHLKPASESLDNVKEAEEQSINFKSNSDHSDDCVNSEAHFY | not soluble |
| MIQLKNVGITLSGKGYERFSLENINLEVNGEKVIILGPNGSGKTTLLRAISGLLPYSGNIFINGMEVRKIRNYIRYSTNLPEAYEIGVTVNDIVYLYEELKGLDRDLFLEMLKALKLGEEILRRKLYKLSAGQSVLVRTSLALASQPEIVGLDEPFENVDAARRHVISRYIKEYGKEGILVTHELDMLNLYKEYKAYFLVGNRLQGPISVSELLESSIVEGERNDALLVLDIMDKKVSIVKGDLGMKFGALGSLNRIYGIIGA | soluble |
| MIQVYKYDENFMFVEPLVVTEIDEKGDYIFPDNCTSVPLPDSPSYYLPRFDLSKQVWIETASQEYIDSLSPPPEEPSDVELLGQSLAEARILILKQNRIILNLQNEVKNLKDGTTALEHHHHHH | soluble |
| MIRITQIKISIDEPVSKVKSLVLKKLRLQESDLLDYRIYKESIDARHRGEIDFIYTVDIKLKDEARILSKKIKNVSLAPELDYVNPVIGSKKMLHRPVVIGFGPAGMFAALLLAQNGYRPIVLERGQAVDERVKSIDKFWLEGKLNPKSNVQFGEGGAGTFSDGKLTSRVRDLRGRKVLEEFVQAGAPEDILYKAHPHVGTDLLRDIVKNIRKQIIELGGEVHFDAQVEEFLIEDEELQAVKLADGNIIKTNQAILAIGHSARDTFSELYDKGVTITAKPFAVGVRIEHPQSLINKAQYKEFADHPRLGAAEYRLTYKASSGRGVYTFCMCPGGLVVPAASEEGGLVTNGMSEHARDQKNANSGLLVQVFPEDFPTDHPLAGVEFQKELEHKAFELGGSNYQAPAQLVGDFLDGKASKAMGTVEPSYALGVKPTNLESLFPDYVTQSMREAIVGLDKKMHGFALSDAVMTGVESRSSSPVRINRDEENYQSVSTKGIYPSGEGAGFAGGIVSAGIDGLKCAESMIAEFAKLLMEDLEHHHHHH | soluble |
